Measured values: patent publication US20240109974A1 (SHANDONG SIMCERE BIOPHARMACEUTICAL, published 2024)

Molecular target: T1, human TNFR2 on the surface of CHO-TNFR2 cells (human, UniProt P20333 23-461)
T1 construct: whole, on cells
T1 sequence (looked up): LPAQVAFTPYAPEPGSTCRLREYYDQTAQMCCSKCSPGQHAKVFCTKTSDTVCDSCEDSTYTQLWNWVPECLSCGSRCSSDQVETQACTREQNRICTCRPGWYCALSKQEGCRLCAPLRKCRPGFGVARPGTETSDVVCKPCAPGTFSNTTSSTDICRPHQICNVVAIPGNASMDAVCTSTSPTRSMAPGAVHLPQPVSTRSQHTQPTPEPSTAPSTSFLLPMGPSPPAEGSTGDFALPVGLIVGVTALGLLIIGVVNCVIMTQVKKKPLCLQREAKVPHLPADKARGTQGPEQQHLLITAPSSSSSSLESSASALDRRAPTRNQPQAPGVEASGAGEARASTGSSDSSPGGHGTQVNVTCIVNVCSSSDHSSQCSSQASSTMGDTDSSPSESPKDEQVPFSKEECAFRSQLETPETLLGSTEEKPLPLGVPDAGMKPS
Assay: flow cytometry on CHO-TNFR2 cells; EC50, reference itself
Protocol: The transfected full-length plasmid of human TNFR2 was purchased from Sino Biological (Cat #HG10417-UT, NCBI Ref Seq: NM_001066.2). The experiment was conducted at a cell density within 80%. The cell medium was discarded; the cells were rinsed with PBS, and digested with 1 ml trypsin for 2 minutes; the digestion was stopped with a Ham's F12 complete medium containing 10% FBS, and then a cell suspension was made. The cell suspension was counted, and then an appropriate amount of cell suspension was centrifuged at 350×g; the supernatant was discarded; a corresponding volume of blocking solution (10% FBS+PBS) at a density of 1×10⁷ cells/ml was added to resuspend the cells, and the mixture was incubated at 4° C. for 30 minutes. After the incubation, the mixture was centrifuged at 350×g to remove the supernatant, and the cells were resuspended in a staining buffer (2% FBS+PBS) to a density of 2×10⁶ cells/ml, and spread onto a 96-well plate, with 50 μl of cell suspension added to each well for later use. The antibody was diluted with PBS for 10-fold gradient dilution from the highest concentration of 20 μg/m (twice the concentration); the diluted antibody was added to the well containing 50 μl of cell suspension, and placed on a microplate shaker for shaking at 500 rpm for 1 minute, so that the antibody was fully mixed with the cells; the mixture was incubated at 4° C. for 1 h. After the incubation, the cells were washed twice with the staining buffer, with 100 μl per well, and centrifuged at 350-g for 5 minutes, and the supernatant was discarded. […] After the staining, similarly, the cells were washed twice with the staining buffer; finally, the cells were resuspended in 200 μl of staining buffer; signals were detected by a flow cytometer (Thermo Attune NxT). […] The binding curve of an antibody was drawn with antibody concentration as the abscissa and corresponding mean fluorescence intensity (MFI) fold as the ordinate, and fitted with four parameters (GraphPad Prism9) to calculate the EC50 value.

% Relative activity (WT antibody/test antibody): 100%
B1: 001-WT (antibody, V domains shown)
VH: EVQLQESGGGLVQPGGSLNLSCAASGFAFSTYDLSWVRQTPEKRLEWVAYINNGGISTYYSDTVKGRFTISRDNAKNTLYLQMSSLKSEDTAMYYCVRGPFYGSANYFDYWGQGTTVTVSS
VL: EIVMTQSPASLSLSVGETVTITCRTSESIYSNLPWYQQKQGKSPQLLVYDATKLAEGVPSRFSGSESGTQYSLKINSLQSEDFGTYYCQHFWVTPWTFGGGTKLEIK
notes: Human-murine chimeric wild-type molecule; also called human-murine chimeric antibody WT of #001
